Consider two molecules from patent publication US20080241098A1 (Pfizer, published 2008).

This test has as its target T1, human MU-1 Ig fusion protein (human, UniProt Q9HBE5 20-235).
T1 construct: also called MUFc; IL-21R; not shown: Ig part of the fusion protein
The test can be described thus: Biacore, MU-1 Ig fusion protein immobilized on chip. The method, then:
Both human and murine Ig fusion proteins were constructed and immobilized on Biacore chips in an effort to identify the ligand for MU-1. A variety of cell culture conditioned media as well as a panel of known cytokines were evaluated for binding to MU-1. Some cytokines were also tested in combination with other receptor chains in the family to consider the possibility that MU-1 may require a second receptor chain for ligand binding. The following cytokines were tested and found to be negative for MU-1 binding: mIL-2, hIL-2, hIL-15, mIL-7, TSLP, TSLP+IL-7, TSLP+IL-7R, TSLP+IL-7g, TSLP+IL-2, TSLP+IL-2+IL-2Rbeta, IL2-Rbeta, IL-2Rgamma, IL-7R, IL-2+IL-2Rbeta, IL-2+IL-2Rgamma, IL-15+IL-2Rbeta, IL-15+IL-2Rgamma, IL-7+IL-2Rgamma, IL-2+IL-7R, IL-15+IL-7R, IL-7+IL-7R. Known receptors have been immobilized as well and tested for MUFc binding with negative results. IL-15 will bind to IL-2Rb but not IL-2Rg or MUFc.
(In general: Surface plasmon resonance follows binding to a sensor surface in real time, without labels.)

T1 sequence (Q9HBE5 20-235): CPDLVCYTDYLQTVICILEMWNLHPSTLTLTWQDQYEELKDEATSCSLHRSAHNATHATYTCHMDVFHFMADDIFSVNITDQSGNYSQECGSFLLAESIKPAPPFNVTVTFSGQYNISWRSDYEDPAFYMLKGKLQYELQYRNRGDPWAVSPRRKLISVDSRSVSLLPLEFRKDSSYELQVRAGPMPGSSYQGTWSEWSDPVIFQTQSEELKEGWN

B1: mIL-7 (ligand, murine, UniProt P10168 26-154, looked up)
chain: ECHIKDKEGKAYESVLMISIDELDKMTGTDSNCPNNEPNFFRKHVCDDTKEAAFLNRAARKLKQFLKMNISEEFNVHLLTVSQGTQTLVNCTSKEEKNVKEQKKNDACFLKRLLREIKTCWNKILKGSI
Turning to B1, the binding result is listed as “no binding”.

B2: mIL-2 (ligand, murine, UniProt P04351 21-169, looked up)
chain: APTSSSTSSSTAEAQQQQQQQQQQQQHLEQLLMDLQELLSRMENYRNLKLPRMLTFKFYLPKQATELKDLQCLEDELGPLRHVLDLTQSKSFQLEDAENFISNIRVTVVKLKGSDNTFECQFDDESATVVDFLRRWIAFCQSIISTSPQ
As for B2, the binding result is listed as “no binding”.
